Test results: article PMC3507621
Numbering of substitutions follows the chain as printed. Numbers in names are those of the source. Blank lines part the entries; values can stand above or below the binder they belong to.

Columns and labels:
[1] = biological target: T1, inter-α-trypsin inhibitor (IαI), P19827;P19823; assay: ELISA; details: chain shown with the change, pH 7.4, PBS with Ca2+ and Mg2+, read off a plot
T1 chain 1: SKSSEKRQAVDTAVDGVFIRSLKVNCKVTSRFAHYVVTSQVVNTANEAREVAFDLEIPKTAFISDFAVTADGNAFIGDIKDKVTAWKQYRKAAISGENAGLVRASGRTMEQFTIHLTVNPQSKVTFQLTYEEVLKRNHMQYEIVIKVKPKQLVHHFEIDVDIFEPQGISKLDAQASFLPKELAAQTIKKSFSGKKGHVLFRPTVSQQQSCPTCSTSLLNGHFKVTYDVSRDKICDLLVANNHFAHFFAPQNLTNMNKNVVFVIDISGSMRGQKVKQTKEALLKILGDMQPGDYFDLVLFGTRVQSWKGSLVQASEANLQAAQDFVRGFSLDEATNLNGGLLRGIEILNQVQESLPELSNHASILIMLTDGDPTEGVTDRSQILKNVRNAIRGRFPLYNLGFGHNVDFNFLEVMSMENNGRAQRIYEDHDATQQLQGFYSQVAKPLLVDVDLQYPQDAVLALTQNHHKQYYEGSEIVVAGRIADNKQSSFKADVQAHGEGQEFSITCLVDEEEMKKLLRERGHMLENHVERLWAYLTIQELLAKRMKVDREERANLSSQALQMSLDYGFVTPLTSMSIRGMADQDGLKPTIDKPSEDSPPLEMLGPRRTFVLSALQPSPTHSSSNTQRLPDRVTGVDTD
T1 chain 2: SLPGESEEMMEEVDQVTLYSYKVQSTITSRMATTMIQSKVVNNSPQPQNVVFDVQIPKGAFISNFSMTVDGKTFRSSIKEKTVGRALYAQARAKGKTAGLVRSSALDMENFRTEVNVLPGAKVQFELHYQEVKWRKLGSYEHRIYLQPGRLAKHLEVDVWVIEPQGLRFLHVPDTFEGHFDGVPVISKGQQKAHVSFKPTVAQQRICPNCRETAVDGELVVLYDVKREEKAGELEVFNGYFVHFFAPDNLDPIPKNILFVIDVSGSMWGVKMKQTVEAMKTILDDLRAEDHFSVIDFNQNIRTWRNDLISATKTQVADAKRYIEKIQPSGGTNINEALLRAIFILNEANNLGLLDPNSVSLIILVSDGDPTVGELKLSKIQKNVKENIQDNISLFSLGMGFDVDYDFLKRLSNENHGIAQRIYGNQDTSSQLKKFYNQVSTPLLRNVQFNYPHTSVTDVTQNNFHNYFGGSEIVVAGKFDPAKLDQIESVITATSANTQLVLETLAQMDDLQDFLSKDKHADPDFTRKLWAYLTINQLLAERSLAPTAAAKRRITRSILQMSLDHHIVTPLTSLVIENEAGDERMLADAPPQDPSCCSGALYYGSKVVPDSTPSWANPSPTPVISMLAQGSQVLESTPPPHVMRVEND
T1 chain 3: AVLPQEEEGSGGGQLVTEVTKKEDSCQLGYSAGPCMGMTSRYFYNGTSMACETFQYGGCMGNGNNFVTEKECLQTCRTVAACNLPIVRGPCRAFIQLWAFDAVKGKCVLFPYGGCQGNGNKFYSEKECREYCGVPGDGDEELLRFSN

[2] = biological target: T1, inter-α-trypsin inhibitor (IαI), …; assay: competition ELISA (bPTX3 detected with HRP-conjugated streptavidin); details: chain shown with the change, wells coated with IαI, read off a plot
[3] = IαI 100 nM (est. from x axis), parent: est. 2.6
[4] = IαI about 1.7 nM (est. from x axis), parent: est. 1.0
[5] = IαI about 6 nM (est. from x axis), parent: est. 2.2
[6] = IαI about 46 nM (est. from x axis), parent: est. 2.7
[7] = IαI about 13 nM (est. from x axis), parent: est. 2.5

response [1, 3]: 2.6 O.D. (450nm)
response [1, 4]: 0.45 O.D. (450nm)
response [1, 5]: 1.3 O.D. (450nm)
response [1, 6]: 2.5 O.D. (450nm)
other: bPTX3 bound to IαI (% of bPTX3 binding in the absence of competitors) ([2]; competitor about 0.24 nM (est. from x axis), parent: est. 99): 99%
other: bPTX3 bound to IαI (% of bPTX3 binding in the absence of competitors) ([2]; competitor about 2.5 nM (est. from x axis), parent: est. 98): 96%
other: bPTX3 bound to IαI (% of bPTX3 binding in the absence of competitors) ([2]; competitor about 24 nM (est. from x axis), parent: est. 80): 82%
other: bPTX3 bound to IαI (% of bPTX3 binding in the absence of competitors) ([2]; competitor about 240 nM (est. from x axis), parent: est. 38): 59%
other: bPTX3 bound to IαI (% of bPTX3 binding in the absence of competitors) ([2]; competitor about 2400 nM (est. from x axis), parent: est. 11): 30%
B1: wild type recombinant N-terminal region of PTX3 (N_PTX3), P26022 C47S; C49S; C103S (protein)
chain: ENSDDYDLMYVNLDNEIDNGLHPTEDPTPSASGQEHSEWDKLFIMLENSQMRERMLLQATDDVLRGELQRLREELGRLAESLARPSAPGAPAEARLTSALDELLQATRDAGRRLARMEGAEAQRPEEAGRALAAVLEELRQTRADLHAVQGWATG

response [1, 3]: 2.6 O.D. (450nm)
response [1, 4]: 0.24 O.D. (450nm)
response [1, 5]: 0.86 O.D. (450nm)
response [1, 7]: 1.4 O.D. (450nm)
response [1, 6]: 2.4 O.D. (450nm)
B2: wild type recombinant N-terminal region of PTX3 (N_PTX3), P26022 C47S; C49S (protein)
chain: B1 chain with S86C

response [1, 3]: 2.6 O.D. (450nm)
response [1, 4]: 0.28 O.D. (450nm)
response [1, 5]: 1.1 O.D. (450nm)
response [1, 7]: 1.7 O.D. (450nm)
response [1, 6]: 2.5 O.D. (450nm)
B3: wild type recombinant N-terminal region of PTX3 (N_PTX3), P26022 C103S (protein)
chain: B1 chain with S30C, S32C
